Results from IntAct's records for PubMed 15604664.

B1: Floral homeotic protein … (Arabidopsis thaliana (Mouse-ear cress)), P48007 (parent)
chain: MGRGKIEIKRIENANNRVVTFSKRRNGLVKKAKEITVLCDAKVALIIFASNGKMIDYCCPSMDLGAMLDQYQKLSGKKLWDAKHENLSNEIDRIKKENDSLQLELRHLKGEDIQSLNLKNLMAVEHAIEHGLDKVRDHQMEILISKRRNEKMMAEEQRQLTFQLQQQEMAIASNARGMMMRDHDGQFGYRVQPIQPNLQEKIMSLVID
B2: Floral homeotic protein … (Arabidopsis thaliana (Mouse-ear cress)), P48007 (parent)
chain: B1 chain
partner: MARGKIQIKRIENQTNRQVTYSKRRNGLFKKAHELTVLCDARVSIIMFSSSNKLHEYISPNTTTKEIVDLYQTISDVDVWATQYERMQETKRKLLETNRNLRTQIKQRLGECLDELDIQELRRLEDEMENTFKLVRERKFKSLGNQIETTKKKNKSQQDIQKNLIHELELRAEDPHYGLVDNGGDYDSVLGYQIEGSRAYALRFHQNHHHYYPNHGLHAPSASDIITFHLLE
B3: Developmental protein … 3 (Arabidopsis thaliana (Mouse-ear cress)), O22456 (parent)
chain: MGRGRVELKRIENKINRQVTFAKRRNGLLKKAYELSVLCDAEVALIIFSNRGKLYEFCSSSSMLRTLERYQKCNYGAPEPNVPSREALAVELSSQQEYLKLKERYDALQRTQRNLLGEDLGPLSTKELESLERQLDSSLKQIRALRTQFMLDQLNDLQSKERMLTETNKTLRLRLADGYQMPLQLNPNQEEVDHYGRHHHQQQQHSQAFFQPLECEPILQIGYQGQQDGMGAGPSVNNYMLGWLPYDTNSI
partner: B1 chain

Variants of: B1
Settings: with sep3_arath SEP3, O22456

Q: Which “effect of a mutation on the interaction” value does the source give for L160P here?
A: increasing interaction

Q: Q102P was tested. Which “effect of a mutation on the interaction” value did it give?
A: decreasing interaction

Q: G110P was tested. Which “effect of a mutation on the interaction” value did it give?
A: decreasing interaction

Q: S145P was tested. Which “effect of a mutation on the interaction” value did it give?
A: decreasing interaction

Q: I142P was tested. Which “effect of a mutation on the interaction” value did it give?
A: decreasing interaction

Q: For G177P, which “effect of a mutation on the interaction” value is on record?
A: increasing interaction

Q: With N149P as the variant, how does the “effect of a mutation on the interaction” value read?
A: increasing interaction

Q: L116P was tested. Which “effect of a mutation on the interaction” value did it give?
A: decreasing interaction

Q: For M153P, which “effect of a mutation on the interaction” value is on record?
A: decreasing interaction

Q: For L103P, which “effect of a mutation on the interaction” value is on record?
A: decreasing interaction

Q: For G131P, which “effect of a mutation on the interaction” value is on record?
A: decreasing interaction

Q: Which “effect of a mutation on the interaction” value does the source give for A154P here?
A: decreasing interaction

Q: How did the “effect of a mutation on the interaction” value turn out when L132P was run?
A: decreasing interaction

Q: How did the “effect of a mutation on the interaction” value turn out when Q167P was run?
A: increasing interaction

Q: L87P was tested. Which “effect of a mutation on the interaction” value did it give?
A: decreasing interaction

Variants of: B1
Settings: with sep3_arath SEP3, O22456
Remark: another data set of the same source

Q: For R158Q;E168V, which “effect of a mutation on the interaction” value is on record?
A: decreasing interaction

Q: For S115F;K119I;N120I, which “effect of a mutation on the interaction” value is on record?
A: decreasing interaction

Q: Which “effect of a mutation on the interaction” value does the source give for L164Q here?
A: decreasing interaction

Q: How did the “effect of a mutation on the interaction” value turn out when A127P was run?
A: decreasing interaction

Q: With N89S;M152V as the variant, how does the “effect of a mutation on the interaction” value read?
A: decreasing interaction

Q: D99G;Q199G was tested. Which “effect of a mutation on the interaction” value did it give?
A: decreasing interaction

Q: Which “effect of a mutation on the interaction” value does the source give for L118P;N149D;L160P here?
A: decreasing interaction

Q: How did the “effect of a mutation on the interaction” value turn out when L143P was run?
A: decreasing interaction

Q: I142F was tested. Which “effect of a mutation on the interaction” value did it give?
A: decreasing interaction

Q: M122K;E141K;M178V was tested. Which “effect of a mutation on the interaction” value did it give?
A: decreasing interaction

Q: Which “effect of a mutation on the interaction” value does the source give for V124D here?
A: decreasing interaction

Q: F162L;M203T was tested. Which “effect of a mutation on the interaction” value did it give?
A: decreasing interaction

Q: How did the “effect of a mutation on the interaction” value turn out when P193L was run?
A: decreasing interaction

Q: For E129D, which “effect of a mutation on the interaction” value is on record?
A: decreasing interaction

Q: D112G;R176G was tested. Which “effect of a mutation on the interaction” value did it give?
A: decreasing interaction

Q: How did the “effect of a mutation on the interaction” value turn out when E141R;P193L was run?
A: decreasing interaction

Q: How did the “effect of a mutation on the interaction” value turn out when A154P;Q157E;F162L was run?
A: decreasing interaction

Q: How did the “effect of a mutation on the interaction” value turn out when I128V was run?
A: decreasing interaction

Q: I128F was tested. Which “effect of a mutation on the interaction” value did it give?
A: decreasing interaction

Q: Which “effect of a mutation on the interaction” value does the source give for E125G here?
A: decreasing interaction

Q: How did the “effect of a mutation on the interaction” value turn out when E129K;L132P was run?
A: decreasing interaction

Q: For L105P;D112A;E125G;V206A, which “effect of a mutation on the interaction” value is on record?
A: decreasing interaction

Q: How did the “effect of a mutation on the interaction” value turn out when L121P was run?
A: decreasing interaction

Q: How did the “effect of a mutation on the interaction” value turn out when L116P;M152T was run?
A: decreasing interaction

Q: K151E was tested. Which “effect of a mutation on the interaction” value did it give?
A: decreasing interaction

Variants of: B2
Settings: with ap3_arath AP3, P35632

Q: Which “effect of a mutation on the interaction” value does the source give for Q102P here?
A: decreasing interaction

Q: I94T was tested. Which “effect of a mutation on the interaction” value did it give?
A: decreasing interaction

Q: For S145P, which “effect of a mutation on the interaction” value is on record?
A: decreasing interaction

Q: Which “effect of a mutation on the interaction” value does the source give for G177P here?
A: increasing interaction

Q: For L108S, which “effect of a mutation on the interaction” value is on record?
A: decreasing interaction

Q: L105H was tested. Which “effect of a mutation on the interaction” value did it give?
A: decreasing interaction

Q: For V135A, which “effect of a mutation on the interaction” value is on record?
A: decreasing interaction

Q: How did the “effect of a mutation on the interaction” value turn out when L132P was run?
A: decreasing interaction

Q: Which “effect of a mutation on the interaction” value does the source give for N149P here?
A: increasing interaction

Q: For L143P, which “effect of a mutation on the interaction” value is on record?
A: decreasing interaction

Q: Which “effect of a mutation on the interaction” value does the source give for I142P here?
A: decreasing interaction

Q: Which “effect of a mutation on the interaction” value does the source give for N98D here?
A: decreasing interaction

Q: Which “effect of a mutation on the interaction” value does the source give for A154P here?
A: decreasing interaction

Q: Which “effect of a mutation on the interaction” value does the source give for G131V here?
A: decreasing interaction

Q: For G131P, which “effect of a mutation on the interaction” value is on record?
A: decreasing interaction

Q: For L160P, which “effect of a mutation on the interaction” value is on record?
A: increasing interaction

Q: How did the “effect of a mutation on the interaction” value turn out when V124D was run?
A: decreasing interaction

Q: For I91T, which “effect of a mutation on the interaction” value is on record?
A: decreasing interaction

Q: How did the “effect of a mutation on the interaction” value turn out when I128T was run?
A: decreasing interaction

Q: For L103P, which “effect of a mutation on the interaction” value is on record?
A: decreasing interaction

Q: L87P was tested. Which “effect of a mutation on the interaction” value did it give?
A: decreasing interaction

Q: For L101A, which “effect of a mutation on the interaction” value is on record?
A: decreasing interaction

Q: How did the “effect of a mutation on the interaction” value turn out when Q167P was run?
A: increasing interaction

Q: With G110P as the variant, how does the “effect of a mutation on the interaction” value read?
A: decreasing interaction

Q: With G110A as the variant, how does the “effect of a mutation on the interaction” value read?
A: decreasing interaction

Q: With M153P as the variant, how does the “effect of a mutation on the interaction” value read?
A: decreasing interaction

Q: Which “effect of a mutation on the interaction” value does the source give for A127P here?
A: decreasing interaction

Q: Which “effect of a mutation on the interaction” value does the source give for L116R here?
A: decreasing interaction

Q: L116P was tested. Which “effect of a mutation on the interaction” value did it give?
A: decreasing interaction

Q: Which “effect of a mutation on the interaction” value does the source give for L121A here?
A: decreasing interaction

Q: For L121P, which “effect of a mutation on the interaction” value is on record?
A: decreasing interaction

Variants of: B3
Settings: with pist_arath PI, P48007

Q: With R146E as the variant, how does the “effect of a mutation on the interaction” value read?
A: decreasing interaction
